According to a protein production outcome set (Wang et al. 2014):

Test: label from the status in PepcDB records
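Further: failed if final PepcDB status was selected cloned or expressed and not failed if soluble or beyond.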

Sequence	protein production
MAQINFEGLRELHDCVNYLLHHCPKTRESLSQQGQEKWTEQVSEASLRMLDICNVSKDVMTLVKHSLQDLQLTLRGNESSDVNEKIAAYNRYKNKLKKETLKCLNCLKNMKGNEGRVAMPIEQNLLFVTEVLKEVRRVVVTMVESLFSLGCIPWLEKRSSKGSLSSIFSIRSSYLLDDEWDETAVQSATTRLEAAEITVVELEIELESIFRRLIQTRVSLLNILTN	failed
MAQKLEAKGGEMGDVWDDGVYENVRKVYVGQAQYGIAFVKFEYVNGSQVVVGDEHGKKTELGVEEFEIDADDYIVYVEGYREKVNDMTSEMITFLSIKTFKGKTSHPIEKRPGVKFVLHGGKIVGFHGRSTDVLHSLGAYVSLSSTIKLLGKWIKVEQKGEGPGLRCSHGIAQVGNKIYSFGGEFTPNQPIDKHLYVFDLETRTWSISPATGDVPHLSCLGVRMVSVGSTLYVFGGRDASRQYNGFYSFDTTTNEWKLLTPVEEGPTPRSFHSMAADEENVYVFGGVSATARLNTLDSYNIVDKKWFHCSTPGDSLTARGGAGLEVVQGKVWVVYGFNGCEVDDVHYYDPVQDKWTQVETFGVRPSERSVFASAAIGKHIVIFGGEIAMDPLAHVGPGQLTDGTFALDTETLQWERLDKFGGEEETPSSRGWTASTTATIDGKKGLVMHGGKAPTNDRFDDLFFYGIDSA	not failed
MAQKMTGALVFDERTDRYDIRFDLNSYYGGLHCGECFDVFVRGKWKPTRIEYGDNWYLVGIRAEDLNGLRVRILEHHHHHH	not failed
MAQKTLLIITDGIGYRKDSDHNAFFHAKKPTYDLMFKTLPYSLIDTHGLSVGLPKGQMGNSEVGHMCIGAGRVLYQDLVKISLSLQNDELKNNPAFLNTIQKSPVVHLMGLMSDGGVHSHIEHFIALALECEKSHKKVCLHLITDGRDVAPKSALTYLKQMQNICNESIQIATISGRFYAMDRDKRFERIELAYHSLMGLNHTPLSPSEYIQSQYDKNITDEFIMPACFKNYCGMQDDESFIFINFRNDRAREIVSALGQKQFSGFKRQVFKKLHIATMTPYDNTFPYPVLFPKESVQNTLAEVVSQHNLTQSHIAETEKYAHVTFFINGGVETPFKNENRVLIQSPKVTTYDLKPEMSAKEVTLAVLEQMKLGTDLIIVNFANGDMVGHTGNFEASVKAVEAVDACLGEILSLAKKLDYAMLLTSDHGNCERMKDENQNPLTNHTAGSVYCFVLGDGVKSIKNGALNNIASSVLKLMGLKAPATMDEPLF	failed
MAQPDREARPQFSHPTRQILTMLIVIGLSGFGVFVAMPRVLPVFQANPYLNGFILLVFIIGVLACFWQVVQLIGSVRWIEDFAAGQEREDTTPPSMLAPLASLLRSRAARMQISSSSTRSILDSVAERIEEEREITRYITNVLIYLGLLGTFFGLATTIPAVVDTIRSLNPQEGEEGLAVFNRLMTGLEAQLGGMGTAFGSSLLGLAGSLIVGLLELFTGHGQNRFYRELEEWLSTITRVGFSSGEEGHSESGAIAGVIDTMVEQMDALHAMFAASEEGRAEISGKLGALVETIAEMNQRQAETEDVTAALDRVAAGQETLIDFLREQGAHDGIDAESRMRLRSIDVQMLRILEEISAGRQESMAELRKDIELLAKALSVPRRPLRGVTRDEG	failed
MAQPLFSLDGQSLITPQSVSNKFPSPHNHNETDRLRIAEAEFAVVINIAVQRFAAGKNLPDAVRWLIGQLHDIRQKFGAAVWQKIIPIIQAHPSATILQQCPFTRWSFEKPRGYSGDAGLIDFIYGHPAVAEEVARSTPLGLNIFEYTINAPGPVAVRERRDTLTRYVDETAVRTGSDTEILAIAAGHLREAEASKALAEGRLKRWVALDQDPESIGSISSQFHGTSVQPINGSVRGLLARKHQIGTFDLIYAAGLYDYLTDKVAIRLTQICMEMLKPGGVFLFANFSDEMADDGYMESYMNWELLQRSEADMWRITNAGATQNAVDKTVWFGANRNIIYSTIRKRS	failed
MAQQFKDYFSEKSDVYRSYRPGYPTELFAWLAGLPARRDAALDCGCGTGQASVALAEHFARVYAVDPSAGQIKSATPHKRVEYRVAPAEETGLPDASVDLVIAAQALHWFDFSRFYAEVRRVARGGAVFAAFTYGLLAIDDEIDRIIGRFYRDVIGPYWPPERAHVDAGYRTLPFPFAEIETPTFAMKAEWDLGHLMGYFETWSAVKEYRRLRGDDPLELVAGDLATAWGDPALVRQVSWPLVLRAGRIE	failed
MAQQNAEHIADWRGQSGERWAAYQARLDAMMAPFGQAAIEAAAPTTGERVLDVGCGAGASSRDLAARVGAEGHVLGVDISEPLIERARALAPQDMSVVFRVTDASRAELPDGAFDILFSRFGVMFFNDPTGAFAHMRRALKPGGRAAFVCWRGVTENDWMRLPMGAMKGILPSMTPPGPEAPGPFSFGDQERVERILTKAGFTDIAIEPFDASVSFGEGATRDAALDDAVNMTLEVGPLSRVLADQPDDIRDRASVAVRAALSGCPGERSVMINGATWIVTARNPAS	failed
MAQQQGMDSALFERRLRPVYDNLEVGNNRKALQESEKLLRKHPNLLCARALKGLSLLRLGRYDESHGCLQTVAEEKPTDDSTLQVLSFCYREMEQLDKIVELYQHAVKQNPGNEELLAHLFISHVRVEDYKAQQAVALQLYKAQPKNAYYFWSVISVVFQGIRGPESALPEKRKIYLGLAQRMVDKHIKEGKMETEQEAFLYLHILKLQNKYQEAWEFLTGELCAKLYPGAPVSMKFELLKELGNWRELNELLQQLLDADRDRWDFYKEYIQSSFELLKLTPQGVENGDKDSLARCQEFLQRIIDSSERKKRGPYLARLELHQRMRAEQLPAEKLIGDFDEMVIEYFRLFGDKSCCTHDIALFLPSISMNQRQALASKLLLESGVTSTSLPKNKEQLQKHLCALQISRMCGSHMDLPADHLLAFYTALKLHYEHGRTTFGKKLLATEMGPSDAYALLAANVMYDLSRRENKSDHLFEALCLLQYVLRNSTSNFHVKLLSLKIYHLFGCQVGAQEMYEYLDIKQIQLDSMGYVHCQLLALGGRFSGNRNVYDATLKFFTNSYKERLEYIALTYRFCTFSKMEEFMNFKERLTNSLQYVACSVEAQICDLVSCYGNITQNLSAYVAMSIEPAEDRIAWHELSDNRDLGAIIRWDPLHEVDAAEERRESFDQEVEVLQVRSLMLRLFASFIDLYHGAGLKDSPAGAETATLELLRESWTGLFQRLRVMNYKPLAQKFLVNLLPTRLHLLLDMPYERFFDDLAQLVLDLQSGSAKLAEQCKRVGDNVIATMELCVQTINESNESNGIDGLWKRRGQQQKVAASLEMLSLYAFLLSVLNDKLQVSSKTKTKKKPVENKVDGPQPISEKERSQMLQELMRQLKHKFEACDTAIRSWKAPVLPRDLSSFMSDMSLKPEVEATLIGDVSATFKDSHELMVTELRNLLKDKIRMVAK	failed
MAQQTPLYEQHTLCGARMVDFHGWMMPLHYGSQIDEHHAVRTDAGMFDVSHMTIVDLRGSRTREFLRYLLANDVAKLTKSGKALYSGMLNASGGVIDDLIVYYFTEDFFRLVVNSATREKDLSWITQHAEPFGIEITVRDDLSMIAVQGPNAQAKAATLFNDAQRQAVEGMKPFFGVQAGDLFIATTGYTGEAGYEIALPNEKAADFWRALVEAGVKPCGLGARDTLRLEAGMNLYGQEMDETISPLAANMGWTIAWEPADRDFIGREALEVQREHGTEKLVGLVMTEKGVLRNELPVRFTDAQGNQHEGIITSGTFSPTLGYSIALARVPEGIGETAIVQIRNREMPVKVTKPVFVRNGKAVA	not failed
MAQRSILVGQIWHEGHSFNPILTREKDFLFLRGEAVLEEARASSTALSGIVKTAEALGYRCVPSISARARPGGAIEQKVFDNIVDEFVQAARMQDFDAICLDLHGATLAEHTLDTEGYLLSRLREVVGNDIMISLALDLHAYLTPQMVEQATIITSFRTTPHADIEETGVRAMTLLDSLSNETRPPRAIYSLIPFLTRGNDETWSGPLAEIGAAADRWRARSDVVDLSIFNVHPFLDVPGYGQVVLAYDNGSGAAIDACRDLSDMLWKARDEFQEQLMSVDKALEIARTSRQLLALGDQGDRVMGAGPGDSPEIARVALEHFPGLKVAVPVYDPQAVRTAREAGENATVRMAVGGAFTHSVAPLERDWTVRKLCRARFTNIGPYMAGTEADFGDAAVLTCDAVTVIVTTMAPNVHDPAFYEAVGVPLASQQAVVARAANHYKLSFADIARTITVDTPGLTAFKPHQFPFTQARPFYPLDIVQWSFAPLECNKVG	not failed
MAQTQGTRRKVCYYYDGDVGNYYYGQGHPMKPHRIRMTHNLLLNYGLYRKMEIYRPHKANAEEMTKYHSDDYIKFLRSIRPDNMSEYSKQMQRFNVGEDCPVFDGLFEFCQLSTGGSVASAVKLNKQQTDIAVNWAGGLHHAKKSEASGFCYVNDIVLAILELLKYHQRVLYIDIDIHHGDGVEEAFYTTDRVMTVSFHKYGEYFPGTGDLRDIGAGKGKYYAVNYPLRDGIDDESYEAIFKPVMSKVMEMFQPSAVVLQCGSDSLSGDRLGCFNLTIKGHAKCVEFVKSFNLPMLMLGGGGYTIRNVARCWTYETAVALDTEIPNELPYNDYFEYFGPDFKLHISPSNMTNQNTNEYLEKIKQRLFENLRMLPH	failed
MAQVPAGKNRSGQLSKQTGDAWENQARRWLEGQGLRFIAANARERGGEIDLIMRDGTVTVFIEVRYRRSARYGDAAASVTPQKQQRLLKAARLWLCRQ	failed
MAQYQALYRQWRPRTFAEVVGQEHITRTLRNALRTGRLVHAYLFCGPRGTGKTSTAKILARAINCLAPREGEPCNECANCRRILAGNSLDVLEMDAASNRGIDEIRNLIEKIPLGPVEGRYKVYIIDEVHMLTQEAFNALLKTLEEPPAHAVFILATTEPRKVLPTILSRCQRFDFHPLTVQAIAGRLQEVAAANGVEIEPGALSLLSRKAAGGLRDALSLLDQILASGTRGPVTAGQVAVTLGTARLDTLLALTDALATGDGAGVLNLVDKALASGIEPRRLLEDLLDHTRNLLLLKVDPGAGSLTGLLPEEVEQVAAQARQFDHHRLLDLMERLQQGGAALRRSNQPRVILEMTLAGFLVAPGPSLEGLARRVAELEARLAALEGSAPSRTREKVATRNQGEGGRPPVAPGSRADAGGQERGNSGPLEAPGAGSPAGRARVINRSREFPQAAGRDRAGLAGPETATGLEPGSPASPGLELAVVQEHWPEVLAAARRESIQLQAFLREGEPVAIDGDTLTLAVKADFHRGMLEQPGNRQKVEKALAAVFGRPLKVVITSGKPSPPGDTGDTLTRLVNFFGADKVEIKD	failed
MARGPPRALASTRSPSTHMTAISNPDSEDLHIIIAGAGRVGHRTARVLRDQGHEAYLIDKDPDIVEDARQALGATVIEGDATDPKVLAQADPERADVLAALTETGATNFAICAVVKHLTGDIRTVARIERPDQLDEEGTFFDRVVYPERAGAKSAVNQILTGDTRVFEDVGGDLDVAEVQVAPEAPAAGKQLDAAALPDQSHVVFDVTNDEVPQPSTELVPGHRYLIAAAPGVAREARRRLVG	failed
MARGREAVTLLLVGWGYAPGMQTLEALDAVRRADVVYVESYTMPGSSWLYKSVVEAAGEARVVEASRRDLEERSREIVSRALDAVVAVVTAGDPMVATTHSSLAAEALEAGVAVRYIPGVSGVQAARGATMLSFYRFGGTVTLPGPWRGVTPISVARRIYLNLCAGLHTTALLDVDERGVQLSPGQGVSLLLEADREYAREAGAPALLARLPSVLVEAGAGGGHRVLYWSSLERLSTADVEGGVYSIVIPARLSGVEEWLLAAASGQRRPLEYDRSVYETVEENCKKGVYMEPV	not failed
MARLIGFKMAEVHRGRIVMQLDPDQSLENTAGLLHGAIAAALLDTAMGCAISTQQPAGQGSVTMDLKLSYLRPLSVRSGTIVAEGRVVKLGRQSSYTEGFVYDGAGKLAVHATATFAMLGAGPLEHHHHHH	failed
